{"source": "patent US20230076643A1", "molecular_target": "T1, CD6 (UniProt P30203)", "T1 sequence (looked up)": "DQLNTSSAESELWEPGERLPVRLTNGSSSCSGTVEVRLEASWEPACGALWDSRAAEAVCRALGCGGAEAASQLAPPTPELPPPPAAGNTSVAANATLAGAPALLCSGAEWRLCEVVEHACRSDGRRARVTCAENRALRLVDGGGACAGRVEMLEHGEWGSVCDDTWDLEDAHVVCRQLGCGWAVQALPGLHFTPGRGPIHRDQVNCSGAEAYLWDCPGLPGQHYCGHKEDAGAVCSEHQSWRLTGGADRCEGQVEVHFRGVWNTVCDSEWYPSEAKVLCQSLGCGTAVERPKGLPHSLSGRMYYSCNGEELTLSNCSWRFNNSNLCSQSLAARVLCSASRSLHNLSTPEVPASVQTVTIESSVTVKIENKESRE", "assay": "binding assay of FIG. 7 on CAR Tregs; method not described", "data": [{"binder": "CD6 CAR (representative CD6 CAR, expressed on Treg) (protein, part only; not given: hinge, transmembrane and signalling domains, part only) scFv, part: EVQLVESGGGLVKPGGSLKLSCAASGFKFSRYAMSWVRQAPGKRLEWVATISSGGSYIYYPDSVKGRFTISRDNVKNTLYLQMSSLRSEDTAMYYCARRDYDLDYFDSWGQGTLVTVSSGSTSGGGSGGGSGGGGSSDIQMTQSPSSLSASVGDRVTITCKASRDIRSYLTWYQQKPGKAPKTLIYYATSLADGVPSRFSGSGSGQDYSLTISSLESDDTATYYCLQHGESPFTFGSGTKLEIKRA", "values": [{"measurement": "Kd", "result": 50, "unit": "nM"}]}]}
